The series in a line: label from the status in PepcDB records.

In the case of “MATFFFKTNYYQEIMLKRIFFLMIFFVSQTMASVFTHEEVQILKKHFLNNFQTNGAIVASPSQYNPNYYYDWIRDSAIAMGLVETWYEASQSARYKKLLLEYVSWTEKIQHQADPIAGQDILGEPKFYINGNPFDGEWGRPQNDGPALRASVLIRFAQQLLDHNEIDYVKSHLYNNTMDPQSMGTIKMDLEYIAHHWQDANFDLWEEVYGHHFFTAMAQQKALTDGAILAHQLHDRQAAVFYEMQANLINSRLKQHLDHQNKIIQATLLPHPGPQKTLELDSSVMLGILINPQKEGVFAPHHTFVQNTAKALHEQFNLMFPINKNRSGAILFGRYPGDTYDGYQTNSIGNPWFILTATMAEYYFTMAHNLSPNSINKLHIQNYLKKGDNYLRLIKQYGPDLNLSEQINLNTGVQQGATSLTWSYVSVLRAIHLREQLENRIKTTGWNTY”, the protein production entry was “failed”.

“MATFMTEDFLLKNDIARTLYHKYAAPMPIYDFHCHLSPQEIADDRRFDNLGQIWLEGDHYKWRALRSAGVDESLITGKETSDYEKYMAWANTVPKTLGNPLYHWTHLELRRPFGITGTLFGPDTAESIWTQCNEKLATPAFSARGIMQQMNVRMVGTTDDPIDSLEYHRQIAADDSIDIEVAPSWRPDKVFKIELDGFVDYLRKLEAAADVSITRFDDLRQALTRRLDHFAACGCRASDHGIETLRFAPVPDDAQLDAILGKRLAGETLSELEIAQFTTAVLVWLGRQYAARGWVMQLHIGAIRNNNTRMFRLLGPDTGFDSIGDNNISWALSRLLDSMDVTNELPKTILYCLNPRDNEVLATMIGNFQGPGIAGKVQFGSGWWFNDQKDGMLRQLEQLSQMGLLSQFVGMLTDSRSFLSYTRHEYFRRILCNLLGQWAQDGEIPDDEAMLSRMVQDICFNNAQRYFTIK”: the protein production entry is “not failed”.

With “MATGLGFFKLSFLLSLLSGGSDLLGPDAESGVAQIGKFPPSCNRIECPSYELVHSGNGYEIRRYNNTVWVSTEPIPDISLVDATRTAFFQLFAYIQGKNEYHQKIEMTAPVISQVSPSDGPFCESSFTVSFYVPKKNQPDPAPSENLHIQKWNSRYVAVRQFSGFVSDDSIGEQAAALDSSLKGTAWANAIAKSKEDGGVGSDSAYTVAQYNSPFEFSGRVNEIWLPFELDV”, the protein production entry is recorded as “failed”.

Regarding “MATGTATEKPKIVWNEGRHRFETDDHEAFIEYKMKNDGKVMDLVRTFVPPSKAGLGLASHLCVAAFEHASEHSFSIIPTCSYVSVYISSFLKKLR”, the protein production entry was “failed”.

In the case of “MATLLGFSQTKFHHCGVWISTPPCSSSSTVVSMVGLNRTDSKKLRSDFLGQIGYEDRRQVRHSYCRSSLAVKMSWDGPLASVKLIIQGKNLELSEPIKQHVEEKVGKSVQKHSHLVREVDVRLSVRGGEFGKGPRIRRCEVTLFTKKHGVVRAEEDAETVYACIDLVSTIIQRKLRKIKEKDSDHGRHMKGFNRLKVREPVIEPVVEDVEDSTDSSVGEEEEEDDLIKEIVRTKTFEMPPLTVAEAVEQLELVSHDFYGFQNEETGEINIVYKRKEGGYGLIIPKKDGKAEKVEPLPTEQLNEHSFAE”, the protein production result was “failed”.

Take “MATLPAAETWIDGGGGVGADAVNLTASLAAGAATGAVETGWLQLLDQAGNLSSSPSALGLPVASPAPSQPWANLTNQFVQPSWRIALWSLAYGVVVAVAVLGNLIVIWIILAHKRMRTVTNYFLVNLAFSDASMAAFNTLVNFIYALHSEWYFGANYCRFQNFFPITAVFASIYSMTAIAVDRYMAIIDPLKPRLSATATKIVIGSIWILAFLLAFPQCLYSKTKVMPGRTLCFVQWPEGPKQHFTYHIIVIILVYCFPLLIMGITYTIVGITLWGGEIPGDTCDKYHEQLKAKRKVVKMMIIVVMTFAICWLPYHIYFILTAIYQQLNRWKYIQQVYLASFWLAMSSTMYNPIIYCCLNKRFRAGFKRAFRWCPFIKVSSYDELELKTTRFHPNRQSSMYTVTRMESMTVVFDPNDADTTRSSRKKRATPRDPSFNGCSRRNSKSASATSSFISSPYTSVDEYS”: the protein production entry is reported as “failed”.

For “MATRFDVKTIVKDKRFWIASFIIVWAAGLQGHMMWLQKQESFKQKFGTIDEDDHK”, the protein production entry was “failed”.

Take “MATTTSAACPIFSLSLLGRFVLTGPDGAVSLPNKKLAGLLAFLACMAPDPQSREKLSTLLWGSYLDAQAKQNLRQALFKLRQILGQDALRSDGELVSLNAMVIACDVSQFEELVQDGSRDALSAAADLYRGRLADDISVGEECWSEWVAGERERLSELALGAMVTLGGHELSEGRAEQALRTGQRANALNNLREDSHRLIMRALSATGRNAEALKYYRDVVALLKRELSTEPDLATRSLAAELRSNHPQNAAPAAGEVAPEASPPPALVMHGERPSLVVLPFSNMSGDPEQDYFADGVTADIITALSRFRALVVIARGTSFALRDKGMTSQQIAQQLGVQYVLSGQIRKAGNRIRVSAELTHSGSEAQVWSDRYDRPLTDIFDLQDDVSSSVAAVVDPAVRSAEIERARRKPPTNLSAYDLYLRALHHLWGGTREDITKAIDLLRQSLSLDEARSPTLAALAWGLVMASPLGAHTSPDATTEALSLARRAVEQDGTDAFAHAVYGFTLFGPAGDNDQGRIHAVEAVRLNPSSAFAWGTLGMIDSMAGDYENAVTCLHRSLVLSPYDSMLHLWMTGLTASCFALGRHEDGIAWARKSVQHNPGNGTGHRMLAANLVAAGRLEEAREITRRRDATQKTTIRDLRAMRFFKQNDALERYLSAQQVAGVAD”: the protein production entry is “failed”.

For “MATVAECNHSVLDLVTKMATMLVADEMKPKKQTAVLVAKKRSKIYESLLHSETMSSQDKLEMLHQVTSEVAKNPDRMDMLLRFQNLLEGQDKEESEITQDQDEENQSEVVIKRIKAGPLQLIETIEIVEEALHPKAFPDINQMNRALKPLQLQPYSDILTTSNLNINFPPEKLIPKIIPSTVIRMGLSESITRMRNEMEKPMHPPPRLPVLAKKVVAPLEDERPFVAQPGPEKHFVSDKLLTNELKILRNKNLVLNYLDEATLIDHLKKAACGIESLTFPISSADKLELRVRPNTTLPTMLPEVLADFANHFIRAGCAFLRLSSRTKWNNIAEMRLERPLNRAMRETIMDYLSTTRQFLLSLQADSLFQLLNNTSTAIQLLCQLDRMFENEPRLNLNTGITGSFLLSSIWLAIDTCGNKDFLHLLIYFLRCISRNYFIQLQRWIYHGELDESVNEIFISRCLNTSPSFTNQCSKEFFDKSYQVDNEAIPEFLVGCEEEILQCGKYNLVLRAYNAQHPVFDVQYPDIVVCLTEQQLKNMRRNLADKYAIIYKRFGWCSMQSIFEDRMATKRVFANLMVKRTQAHLDAWAQKQRELQIKANAQKKLQNDQLNAEQERIQQNHLEKRRQDIVNELAFQRECERMEDKLLEREKQELQKKVVQLAAVLSSSPDRSTVSDLSFASCIEEPDCLAESSSDKDDANTENSEDEATKQLDKTLNVPLEQPEAEYQADVDVDQPRGKECSLPNVFQYQRSHSDVINSNEHPTTQAEFNRNRQHGLSSDQFQQCHATVHLQESDLLKTAASTSSGLHAEIPQDINANLNCPDTKELTELQRNRKRNEHHDGFFSFNSTEDEHTHRLRSLLNSNTERGRNRLRVMETEFGLGYKNTDIETKATPCLPLEIDKLHVEIPLAVLTPMSTTSDVDFGDPSPRELPEIADTANNNNVSGSIESLSPELPKPVLAIAKPTSLLPKLDFGMKDERETEQDRDKVSTLPEACNPFMARRCLQLSVMAPLNAYYGLLRNEVLRIFQEQRIYEHFRKLRNYFFLVDGQFGATLTNEILGRIRAGVGPRSLSQKGILDTILTNALAACSADETTVSENLTLNCTTIPDTLNFLSVEATSMLKLNCKIDWPLNMVISSETISKYGQIFGYLLKLRHVSFVLDGTYEYLQQMGKLLGPELRTCTHFRHMQMMRHKMSHFMTSFQTHLVAKALLSTWKSFKEELCTADSIEALYKQHVAYLKRVAFLALLNRRSAKVKETIDNILVIILRFCKVIQSQSFIVDQDNYFVHPRFKRLQQEEAEFEKFLQYLIYLGNKAAASGYQEEIGDLICIINFNHYYKVSGNHTGSSMEDKKC”, the protein production result is “failed”.

Turning to “MATVRLVTRKRAGRSSRPSAASLPARSAVERNSSGPLLSKSRYVRIMAARRSSSLRQQQGRLEWGGRSRPVELATRSFEKQGDATAFFKAMLNRHQPGERVSDEDGLDVAALLERHTEYVAKVGCGVSHFQVMMTEHGTQCFRIIRTDGSGTDFSYPHCISQRPPSRKQEVAQAFRRAVRFDLYKARDNLFATHSGSDGLVSCAVTGERIAQDEGHMDHRPPMTFEVIVTTFLCGRGLSLDNVPLTTGKDDQVSPEVTDNALSEAFRAYHAGIARLDFVRNTVNLAQASRHRLKDGRITLTG”, the protein production entry is “failed”.

Regarding “MAVAALLPQRPTSLEISMEGETFLWLIRHAPVDGVAGTIHAPDAPADLGDRAQLQALRQRLPRDSASYASPSRRTVETARALGLEPDLVGNFSEQDFGDWTGRRHDELAASGGEAYAQFWGDPAHARPPGGESFEDQVARVRHGLSRIGAGPATLVVHSGTIRAALCIALDLAPQSALRFVIDPLSLTRIDRLATGWRVVSVNQRVV”, the protein production entry is on record as “failed”.

Consider “MAVAQADPGSDPAGGARFFCTAGRGLEPFLMREVRARLEATQVEYISGKVFFTTCSDLPSMKKLKSAERLFVLIKKQLPIAVSSLHKGKILNEMQRFVNDDPGSWLEAISLWKKLLEHDPKREKVSQRDANPLKRKAGENETIIAKKLKVEEKQEVAKDHGESQEDKLLQGSPEQGEAVTRTELQDHRLNSTTEKAADAQDQEDLTFRVSCRCTGNVRKVITGQEAGRVIGLALMRQFGWKADLRNPNIEIFMHLSDAYSVVGIPLLRMPLASRTYIQTAGLRSTIAWAMASIAEIKAGALVLDPMCGLGTILVEAAEEWPDVFYMGADMSDAQLLGACDNLKAAGLTDRIELLKSSVTDLPLPSQSTDVIISDIPFGKKFKLGKDIKSILQEMERVLRVGGAMVLLLSEDHHRHLTDCGGSSIPLTSKGHIAEPEMKTLSNPDRTGAPDTASPSQRASSVQCLGRMRPCGSLVPVESFKVSLGKTDAFICKYKKAQASGLSSAECHEPGAHTEMAAMQESPSLQDSL”, for which the protein production entry is “failed”.

On to “MAVISPATRFAPPLNRPFHRRSILASFHSSSRNFLFLGKPTPSSTIVSVRCQKPVSDGVSSMESMNHVASSVSSSIDFLTLCHRLKGINGPESIADHMYRMALMALIAGDLTGVDRERCIKMAIVHDIAEAIVGDITPSDGVPKEEKSRRETAALKEMCEVLGGGLRAEEITELWLEYENNASLEANIVKDFDKVEMILQALEYEAEHGKVLDEFFISTAGKFQTEIGKSWAAEINARRKSQLTNRQR”, for which the protein production result was “failed”.

For the sequence “MAVKFFGQFLVEKGVVSRETLLQAIELQESVNLSFGATSLAMGILTEADIERIHNAQRIEDLRFGDMAVKLGLLTSEQMMQVLTRQKNTHLYIGEALVKVGSFQADELPKYLEEFKADQAQYATDTVVIPTGVSEPKIWEMVADLSYKMLTRVALLVFRPEPCFVADRVPAMDVYATMDFTGDISGRYFMGVTAATQKKIAKAILKEPNVDNEPKEILDDTVMEFVNVALGNIAAKAAQSGKSMEIAPPEIIEAPDGIQVPDGHKALCFPVCLSDGDRIELAVFIQQLEHHHHHH”, the protein production entry is given as “not failed”.

With “MAVMDPWLIWLIVSAVLVLAEIFTLTAALGMLGVAALITAGSAAAGLSTPFQFLVFTVVSAVTLFFLRPVALRHLVQPQTQRFGVDALVGQAAYVVSDVTGREGRVRIGGEEWTARSYDETLVIPRGATVDVLEISGTTAFVYPRE”, the protein production entry is “failed”.

On to “MAVNACLSPPEMMAVRPGEGVPNSKSTQGKTRLYLTKPSWIVRTQSGAKTCMKSKAKGRCVICHGSGRVDCFNCCGKGRTNCVDVEMLPRGEWPKWCKSCGGSGLSDCSRCLGTGERASFFFLWFDILIVMSSVALPAMSCRSSGEQVKEIRVCTNRTCRRQGSFQILETLTALAPPELRVTHCACLGRCGSGPNLVALPQGLILRHCATPSRAAEILFSLCGDGREASSSSAVTDALTALALTNNALSQIDAGNFSEAEALLTQALELKPYGGLHRIFKHRSVAKLGMLDYSGALEDISQALALAPNYSEPYICQGDVYVAKGQYDLAEKSYLTCLEIDPSLRRSKPFKARIAKLQQKVVELDVT”, for which the protein production entry was “failed”.

Source of the values: a protein production outcome set (Wang et al. 2014).
